The values below come from patent US11702666B2, “Cell-based assay for determining activity in the retinoblastoma pathway” (Medical Diagnostic Laboratories, LLC, priority 2017, dated 2023).

For the experiment, the system named is E2F1/Dp-1 heterodimer. As to the kind of experiment: Rb activity assay (LB-Rb with E2F1-SB, DP1 split luciferase). Set-up: key to Observed activity: N—no activity; A—active as WT; R—reduced activity compared to the WT. The experiment is classed as cell-based, human. The conditions noted are these: Rb mutants; for % (/wt): activity relative to WT. The source says: An assay that could measure the interaction between Rb, E2F1, and Dp-1 was developed. Since Dp-1 forms a heterodimer with E2F1 and that interaction is crucial for Rb/E2F1 binding, the assay was comprised of three components. When two proteins (Rb and E2F1) are in close proximity or in complex, a light signal was observed. For the purposes of the current assay, split-luciferase complementation was used to measure the interaction between Rb and E2F1. The NanoBiT assay system by Promega (Madison, Wis.; Dixon et al., 2015, ACS ChemBiol) was used in our split luciferase complementation design.
FIG. 16 depicts the design of a signal system to measure Rb activity. Under basal conditions inside the cell, Rb was active and interacted with the E2F1/Dp-1 heterodimer. For this assay design, cDNAs of Rb linked to different parts of the luciferase protein, either termed as the “Small BiT” (SB), or “Large BiT” (LB) and E2F1 linked to the opposite portion of the luciferase protein were created. When Rb and E2F1/Dp-1 bind, the NanoBiT parts of the luciferase form a complex and emitted a light signal when the luciferase (NanoGlo) substrate was added.
Using the described assay design, HEK293 CDK DKO cells were transiently transfected with different combinations of SB-Rb or LB-Rb and E2F1-LB or E2F1-SB components containing C-terminal and N-terminal constructs (FIG. 17). Relative intensities generated are presented in FIG. 17 as relative luminescence units (RLU). The data represents a sample experiment where each condition was performed in triplicate and represent mean+SD.
The LB-Rb and E2F1-SB with Dp-1 were tested for Rb activity using known Rb null mutants: R661W and C706F (FIG. 18A). […] Rb in-frame (del35) and out-of frame (del1) deletion mutants (FIG. 18B) were constructed and the observed luciferase activity was close to 0, in particular for del1 mutant, because Rb-E2F1 binding was destroyed.
Within the provided assay design, stable cell lines using the HEK293 CDK DKO cell parent line expressing E2F1-SB and Dp-1 were produced. After selection and screening for positive clones using an LB-Rb-mediated increase in signal, four stable single cell clones were selected and evaluated using different Rb mutants (FIGS. 19A and 19B). The response to E2F1 interaction was also checked by using the plasmid and linear form of DNA. Cell line #37 was selected for all our experiments in assay development due to its favorable response.
The conditions of the assay were further optimized by analyzing different cell numbers and Rb concentrations (FIG. 20). Based on the data, it was decided to use 0.2×10^6 cells/ml and 70 ng of DNA in the assay.
Known null and out/in-frame deletion mutants disrupting E2F1 binding and unknown COSMIC mutants were created to examine the ability of the assay to detect variants in Rb that affect function. We transfected WT or mutated Rb using similar conditions as previously indicated (FIG. 20). […] In addition, the null C706F and deletion (del1) mutants presented a signal close to zero as expected for loss of function mutants that disrupt E2F1 interaction. […] This confirmed that the assay was capable of determining the relative activity level of Rb mutants. The data is provided in Luminescence (RLU) of a single experiment with each condition performed in triplicate and represent average+SD.

E2F1/Dp-1 heterodimer, sequence (Q01094 58-437 limits assumed): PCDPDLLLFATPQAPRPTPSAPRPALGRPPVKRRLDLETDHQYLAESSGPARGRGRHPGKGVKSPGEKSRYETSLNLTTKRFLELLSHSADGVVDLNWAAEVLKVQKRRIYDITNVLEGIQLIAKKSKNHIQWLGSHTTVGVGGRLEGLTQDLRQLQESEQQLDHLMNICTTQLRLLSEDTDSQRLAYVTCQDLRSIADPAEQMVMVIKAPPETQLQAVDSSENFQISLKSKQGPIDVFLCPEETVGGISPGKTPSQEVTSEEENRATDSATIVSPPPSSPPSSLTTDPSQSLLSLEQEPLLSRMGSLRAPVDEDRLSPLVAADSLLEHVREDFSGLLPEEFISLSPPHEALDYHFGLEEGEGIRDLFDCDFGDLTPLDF
E2F1/Dp-1 heterodimer, sequence (Q14186 whole entry, further chain): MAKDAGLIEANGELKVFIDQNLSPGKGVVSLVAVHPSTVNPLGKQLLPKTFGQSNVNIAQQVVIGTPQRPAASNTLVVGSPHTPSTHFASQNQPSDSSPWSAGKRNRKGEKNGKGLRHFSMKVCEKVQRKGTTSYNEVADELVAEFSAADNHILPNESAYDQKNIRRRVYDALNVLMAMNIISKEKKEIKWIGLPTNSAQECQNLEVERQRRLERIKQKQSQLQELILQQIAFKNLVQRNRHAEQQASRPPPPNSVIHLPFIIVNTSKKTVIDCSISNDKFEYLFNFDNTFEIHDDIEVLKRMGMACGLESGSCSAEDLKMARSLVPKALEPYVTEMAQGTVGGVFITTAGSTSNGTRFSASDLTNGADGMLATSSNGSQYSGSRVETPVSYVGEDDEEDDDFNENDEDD

B1: Rb A488V: Rb mutant from COSMIC database (protein, UniProt P06400 2-928, looked up, variant A488V)
Retinoblastoma-associated …: PPKTPRKTAATAAAAAAEPPAPPPPPPPEEDPEQDSGPEDLPLVRLEFEETEEPDFTALCQKLKIPDHVRERAWLTWEKVSSVDGVLGGYIQKKKELWGICIFIAAVDLDEMSFTFTELQKNIEISVHKFFNLLKEIDTSTKVDNAMSRLLKKYDVLFALFSKLERTCELIYLTQPSSSISTEINSALVLKVSWITFLLAKGEVLQMEDDLVISFQLMLCVLDYFIKLSPPMLLKEPYKTAVIPINGSPRTPRRGQNRSARIAKQLENDTRIIEVLCKEHECNIDEVKNVYFKNFIPFMNSLGLVTSNGLPEVENLSKRYEEIYLKNKDLDARLFLDHDKTLQTDSIDSFETQRTPRKSNLDEEVNVIPPHTPVRTVMNTIQQLMMILNSASDQPSENLISYFNNCTVNPKESILKRVKDIGYIFKEKFAKAVGQGCVEIGSQRYKLGVRLYYRVMESMLKSEEERLSIQNFSKLLNDNIFHMSLLVCALEVVMATYSRSTSQNLDSGTDLSFPWILNVLNLKAFDFYKVIESFIKAEGNLTREMIKHLERCEHRIMESLAWLSDSPLFDLIKQSKDREGPTDHLESACPLNLPLQNNHTAADMYLSPVRSPKKKGSTTRVNSTANAETQATSAFQTQKPLKSTSLSLFYKKVYRLAYLRLNTLCERLLSEHPELEHIIWTLFQHTLQNEYELMRDRHLDQIMMCSMYGICKVKNIDLKFKIIVTAYKDLPHAVQETFKRVLIKEEEYDSIIVFYNSVFMQRLKTNILQYASTRPPTLSPIPHIPRSPYKFPSSPLRIPGGNIYISPLKSPYKISEGLPTPTKMTPRSRILVSIGESFGTSEKFQKINQMVCNSDRVLKRSAEGSNPPKPLKKLRFDIEGSDEADGSKHLPGESKFQQKLAEMTSTRTRMQKQKMNDSMDTSNKEEK
Take B1: the Observed activity result is “R” and the “% (/wt)” value is listed as 51%.

B2: Rb R698W: Rb mutant from COSMIC database (protein, UniProt P06400 2-928, looked up, variant R698W)
Retinoblastoma-associated …: PPKTPRKTAATAAAAAAEPPAPPPPPPPEEDPEQDSGPEDLPLVRLEFEETEEPDFTALCQKLKIPDHVRERAWLTWEKVSSVDGVLGGYIQKKKELWGICIFIAAVDLDEMSFTFTELQKNIEISVHKFFNLLKEIDTSTKVDNAMSRLLKKYDVLFALFSKLERTCELIYLTQPSSSISTEINSALVLKVSWITFLLAKGEVLQMEDDLVISFQLMLCVLDYFIKLSPPMLLKEPYKTAVIPINGSPRTPRRGQNRSARIAKQLENDTRIIEVLCKEHECNIDEVKNVYFKNFIPFMNSLGLVTSNGLPEVENLSKRYEEIYLKNKDLDARLFLDHDKTLQTDSIDSFETQRTPRKSNLDEEVNVIPPHTPVRTVMNTIQQLMMILNSASDQPSENLISYFNNCTVNPKESILKRVKDIGYIFKEKFAKAVGQGCVEIGSQRYKLGVRLYYRVMESMLKSEEERLSIQNFSKLLNDNIFHMSLLACALEVVMATYSRSTSQNLDSGTDLSFPWILNVLNLKAFDFYKVIESFIKAEGNLTREMIKHLERCEHRIMESLAWLSDSPLFDLIKQSKDREGPTDHLESACPLNLPLQNNHTAADMYLSPVRSPKKKGSTTRVNSTANAETQATSAFQTQKPLKSTSLSLFYKKVYRLAYLRLNTLCERLLSEHPELEHIIWTLFQHTLQNEYELMRDWHLDQIMMCSMYGICKVKNIDLKFKIIVTAYKDLPHAVQETFKRVLIKEEEYDSIIVFYNSVFMQRLKTNILQYASTRPPTLSPIPHIPRSPYKFPSSPLRIPGGNIYISPLKSPYKISEGLPTPTKMTPRSRILVSIGESFGTSEKFQKINQMVCNSDRVLKRSAEGSNPPKPLKKLRFDIEGSDEADGSKHLPGESKFQQKLAEMTSTRTRMQKQKMNDSMDTSNKEEK
Turning to B2, the Observed activity result is given as “N” and the “% (/wt)” value is 6.4%.

B3: Rb E440K: Rb mutant from COSMIC database (protein, UniProt P06400 2-928, looked up, variant E440K)
Retinoblastoma-associated …: PPKTPRKTAATAAAAAAEPPAPPPPPPPEEDPEQDSGPEDLPLVRLEFEETEEPDFTALCQKLKIPDHVRERAWLTWEKVSSVDGVLGGYIQKKKELWGICIFIAAVDLDEMSFTFTELQKNIEISVHKFFNLLKEIDTSTKVDNAMSRLLKKYDVLFALFSKLERTCELIYLTQPSSSISTEINSALVLKVSWITFLLAKGEVLQMEDDLVISFQLMLCVLDYFIKLSPPMLLKEPYKTAVIPINGSPRTPRRGQNRSARIAKQLENDTRIIEVLCKEHECNIDEVKNVYFKNFIPFMNSLGLVTSNGLPEVENLSKRYEEIYLKNKDLDARLFLDHDKTLQTDSIDSFETQRTPRKSNLDEEVNVIPPHTPVRTVMNTIQQLMMILNSASDQPSENLISYFNNCTVNPKESILKRVKDIGYIFKEKFAKAVGQGCVKIGSQRYKLGVRLYYRVMESMLKSEEERLSIQNFSKLLNDNIFHMSLLACALEVVMATYSRSTSQNLDSGTDLSFPWILNVLNLKAFDFYKVIESFIKAEGNLTREMIKHLERCEHRIMESLAWLSDSPLFDLIKQSKDREGPTDHLESACPLNLPLQNNHTAADMYLSPVRSPKKKGSTTRVNSTANAETQATSAFQTQKPLKSTSLSLFYKKVYRLAYLRLNTLCERLLSEHPELEHIIWTLFQHTLQNEYELMRDRHLDQIMMCSMYGICKVKNIDLKFKIIVTAYKDLPHAVQETFKRVLIKEEEYDSIIVFYNSVFMQRLKTNILQYASTRPPTLSPIPHIPRSPYKFPSSPLRIPGGNIYISPLKSPYKISEGLPTPTKMTPRSRILVSIGESFGTSEKFQKINQMVCNSDRVLKRSAEGSNPPKPLKKLRFDIEGSDEADGSKHLPGESKFQQKLAEMTSTRTRMQKQKMNDSMDTSNKEEK
With B3, the Observed activity entry is “R” and the “% (/wt)” value worked out at 47%.

B4: Rb R656W: Rb mutant from COSMIC database (protein, UniProt P06400 2-928, looked up, variant R656W)
Retinoblastoma-associated …: PPKTPRKTAATAAAAAAEPPAPPPPPPPEEDPEQDSGPEDLPLVRLEFEETEEPDFTALCQKLKIPDHVRERAWLTWEKVSSVDGVLGGYIQKKKELWGICIFIAAVDLDEMSFTFTELQKNIEISVHKFFNLLKEIDTSTKVDNAMSRLLKKYDVLFALFSKLERTCELIYLTQPSSSISTEINSALVLKVSWITFLLAKGEVLQMEDDLVISFQLMLCVLDYFIKLSPPMLLKEPYKTAVIPINGSPRTPRRGQNRSARIAKQLENDTRIIEVLCKEHECNIDEVKNVYFKNFIPFMNSLGLVTSNGLPEVENLSKRYEEIYLKNKDLDARLFLDHDKTLQTDSIDSFETQRTPRKSNLDEEVNVIPPHTPVRTVMNTIQQLMMILNSASDQPSENLISYFNNCTVNPKESILKRVKDIGYIFKEKFAKAVGQGCVEIGSQRYKLGVRLYYRVMESMLKSEEERLSIQNFSKLLNDNIFHMSLLACALEVVMATYSRSTSQNLDSGTDLSFPWILNVLNLKAFDFYKVIESFIKAEGNLTREMIKHLERCEHRIMESLAWLSDSPLFDLIKQSKDREGPTDHLESACPLNLPLQNNHTAADMYLSPVRSPKKKGSTTRVNSTANAETQATSAFQTQKPLKSTSLSLFYKKVYWLAYLRLNTLCERLLSEHPELEHIIWTLFQHTLQNEYELMRDRHLDQIMMCSMYGICKVKNIDLKFKIIVTAYKDLPHAVQETFKRVLIKEEEYDSIIVFYNSVFMQRLKTNILQYASTRPPTLSPIPHIPRSPYKFPSSPLRIPGGNIYISPLKSPYKISEGLPTPTKMTPRSRILVSIGESFGTSEKFQKINQMVCNSDRVLKRSAEGSNPPKPLKKLRFDIEGSDEADGSKHLPGESKFQQKLAEMTSTRTRMQKQKMNDSMDTSNKEEK
On to B4, for which the Observed activity result was “A” and the “% (/wt)” value worked out at 79%.

B5: Rb I680T: Rb mutant from COSMIC database (protein)
chain: MVFTLEDFVGDWEQTAAYNLDQVLEQGGVSSLLQNLAVSVTPIQRIVRSGENALKIDIHVIIPYEGLSADQMAQIEEVFKVVYPVDDHHFKVILPYGTLVIDGVTPNMLNYFGRPYEGIAVFDGKKITVTGTLWNGNKIIDERLITPDGSMLFRVTINSGSSGGGGSGGGGSSGGAQGNSNTIQQLMMILNSASDQPSENLISYFNNCTVNPKESILKRVKDIGYIFKEKFAKAVGQGCVEIGSQRYKLGVRLYYRVMESMLKSEEERLSIQNFSKLLNDNIFHMSLLACALEVVMATYSRSTSQNLDSGTDLSFPWILNVLNLKAFDFYKVIESFIKAEGNLTREMIKHLERCEHRIMESLAWLSDSPLFDLIKQSKDREGPTDHLESACPLNLPLQNNHTAADMYLSPVRSPKKKGSTTRVNSTANAETQATSAFQTQKPLKSTSLSLFYKKVYRLAYLRLNTLCERLLSEHPELEHITWTLFQHTLQNEYELMRDRHLDQIMMCSMYGICKVKNIDLKFKIIVTAYKDLPHAVQETFKRVLIKEEEYDSIIVFYNSVFMQRLKTNILQYASTRPPTLSPIPHIPRSPYKFPSSPLRIPGGNIYISPLKSPYKISEGLPTPTKMTPRSRILVSIGESFGTSEKFQKINQMVCNSDRVLKRSAEGSNPPKPLKKLRFDIEGSDEADGSKHLPGESKFQQKLAEMTSTRTRMQKQKMNDSMDTSNKEEK
B5: the Observed activity entry was “R” and the “% (/wt)” value is 32%.
